According to the nanobody polyreactivity screen of Harvey et al. (2022):

Assay: yeast display, Sf9 membrane polyspecificity reagent, FACS + sequencing; frameworks hold sequencing errors
How it was run: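 Sorting gates, low and high (top ~1%), were placed on anti-HA fluorescence to track expression and on streptavidin fluorescence to track reagent binding. A clone's polyreactivity label is taken from the gate it came out of. The reagent was 10% biotinylated, detergent-solubilized Sf9 membrane, applied for 1 hour at 4 °C to galactose-induced yeast display cells.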

Sequence	polyreactivity (PSR sort gate)
QVQLVESGGGLVQAGGSLRLSCAASGGIFYFYAMGWSRQAPGKERELVAAISSNGGRTYYADSVKGRFTISRDNAKNTVYLQMNSLKPEDTAVYYCNAVSRVSDRHLATYDYWGQGTQVTVSS	high polyreactivity
QVQLVESGGGLVQAGGSLRLSCAASGGIFYLNAMGWYREAPGKERELVAAISSGVSTYYADSVKGRFTISRDNAKNTVYLQMNSLKPEDTAVYYCNADYNYPAWVGSWWDYDYWGQGTQVTVSS	low polyreactivity
QVQLVESGGGLVQAGGSLRLSCAASGGIFYLYAMGWYRQAPGKERELVAAITWSADSTYYADSVKGRFTISRDNAKYTVYLQMNSLKPEDTAVYYCNADVAWQYWNGWSWDIYDYWGQGTQVTVSS	low polyreactivity
QVQLVESGGGLVQAGGSLRLSCAASGGIFYTNAMGWYRQAPGKERELVAAIRKNGDSTNYADSVKGRFTISRDNAKYTVYLHMNSLKPEDTAVYYCNDELWPWAYDYWGQGTQVTVSS	low polyreactivity
QVQLVESGGGLVQAGGSLRLSCAASGGIIAINAMGWYRQAPGKERELVAAISWGDGITYYADSVKGRFTISRDNAKNTVDLQMNSLKPEDTAVYYCNARLLSGPGYDYWGQGTQVTVSS	low polyreactivity
QVQLVESGGGLVQAGGSLRLSCAASGGIIGWYAMGWYRQAPGKERELVAAINWSGADTYYADSVKGRFTISRDNAKNTVYLQMNSLKPEDTAVYYCAADGHKYRMDYWGQGTQVTVSS	low polyreactivity
QVQLVESGGGLVQAGGSLRLSCAASGGIKRPYAMGWSRQAPRKERELVAAISYSGGSTYYADSVKGRFTISRDTAKISVYLLMNSLKTEDTAVYYCIAYRQCSNVLTTYEYWGKGTQVTVSS	high polyreactivity
QVQLVESGGGLVQAGGSLRLSCAASGGILHYYAMGWYRQAPGKERELVAAISWSGGSTYYADSVKGRFTISRDNAKNTVYLQMNSLKPEDTAVYYCNKVGVAYIFGWMDYWGQGTQVTVSS	high polyreactivity
QVQLVESGGGLVQAGGSLRLSCAASGGILSYNTMGWYRQAPGKERELVAAITSSGGRTYYADSVKGRFTISRDNAKNTVYLQMNSLKPEDTAVYYCNTVYYFTYYYWGQGTQVTVSS	high polyreactivity
QVQLVESGGGLVQAGGSLRLSCAASGGILVFYAMGWYRQAPGKERELVAAINVSGGSTYYADSVKGRFTISRDNAKNTVYLQMNSLKPEDTAVYYCAALGPYLDYGVQYGYWGQGTQVTVSS	low polyreactivity
QVQLVESGGGLVQAGGSLRLSCAASGGIVGYYAMGWYRQAPGKERELVAAISWSGGSTYYADSVKGRFTISRDNAKNTVYLQMNSLKPEDTAVYYCAASDSYGYDYWGQGTQVTVSS	high polyreactivity
QVQLVESGGGLVQAGGSLRLSCAASGGIYRYYAMGWYRQAPGKERELVAAISTSGTDTYYADSVKGRFTISRDNAKNTVYVQMNSLIPEDTAVYYCAAELYRYGFYEPIYPYSYDYWGQGTQVTVSS	low polyreactivity
QVQLVESGGGLVQAGGSLRLSCAASGGLFTLNAMGWYRQAPGKEREMVAGISWSGDRTYYADSVKGRFTISRDNAKNTVYLQMNSLKPEDTAVYYCAAYDYWGQGTQVTVSS	low polyreactivity
QVQLVESGGGLVQAGGSLRLSCAASGGNFVFNAMGWYRQAPGKERELVAVITYSGGRTYYADSVKGRFTISRDNAKNTVYLQMNSLKPEDTAVYYCNARYGYPLGHSIYYYWGQGTQVTVSS	low polyreactivity
QVQLVESGGGLVQAGGSLRLSCAASGGTFAGNAMGWYRQAPGKERELVAAISKSGAITYYADSVKGRFTISRDNAKNTVYLQMNSLKPEDTAVYYCAARYLSGTSRYYYWGQGTQVTVSS	high polyreactivity
QVQLVESGGGLVQAGGSLRLSCAASGGTFAIYVKGWYRLAPGKERELVAAITRVGSTYADSVKGRFTISRDNAKNTVYLQMNSLKPEDTAVYYCAAVSGVRSGPWRYDYLGQGTQVTVSS	high polyreactivity

Sequence	polyreactivity (PSR sort gate)
QVQLVESGGGLVQAGGSLRLSCAASGGTFARNAMGWYRQAPGKERELVAAIRGGVSTNYADSVKGRFTISRDNAKNTVYLQMNSLKPEDTAVYYCNASPPTLEGYWGQGTQVTVSS	low polyreactivity
QVQLVESGGGLVQAGGSLRLSCAASGGTFDSYAMGWYRQAPGKERELVAAITQSGGRTYYADSVKGRFTISRDNAKNTDYLQMNSLKPEDTAVYYCAAKGITRYGYWGQGTQVTVSS	high polyreactivity
QVQLVESGGGLVQAGGSLRLSCAASGGTFERNAMGWYRPAPGKERELVAAITGSGGRTYYADSVKGRFTISRDNAKNTVYLQMNSLKPEDTAVYYCAAVPWWKYNYWGQGTQVTVSS	high polyreactivity
QVQLVESGGGLVQAGGSLRLSCAASGGTFEYNAMGWYRPAPGKERELVAAISKSGGRTYYADSVKGRFTISRDNAKNTVYLQMNSLKPEDTAVYYCAKRYVWGQGTQVTVSS	high polyreactivity
QVQLVESGGGLVQAGGSLRLSCAASGGTFFYNAMGRYRQAPGKERELVAAINGGTSTNYADSVKGRFTISRDNAKNTVYLQMNSLKPEDTAVYYCAAVYRRLGRYDWYDYWGQGTQVTVSS	low polyreactivity
QVQLVESGGGLVQAGGSLRLSCAASGGTFGRNVMGWYRQAPGKERELVAAISIRGGSTYYADSVKGRCTISRDNAKNTVYLQMNSLKAEDTAVYYCARDYPTDAYDYWGQGTQVTVSS	low polyreactivity
QVQLVESGGGLVQAGGSLRLSCAASGGTFGRYAMGWYRQAPGKERELVADINWSGGGTYYADSVKGRFTISRDNAKNTVYLQMNSLKPEDTAVYYCGARVVEIFHWAGDYWGQGTQVTVSS	low polyreactivity
QVQLVESGGGLVQAGGSLRLSCAASGGTFHHYAMGWYRQAPGKERELVASITNGASTYYADSVKGRFTISRDNAKNTVYLQMNSLKPEDTAVYYCAKRCRVGKYRYEYWGQGTQVTVSS	low polyreactivity
QVQLVESGGGLVQAGGSLRLSCAASGGTFHYYAMGWYRQAPGKERELVAAINRSGDSTYYADSVKGRFTISRDNAKNTVYLQMNSLKPEDTAVFYCAVSYYGADGNPFPHDYWGQGTQVTVSS	low polyreactivity
QVQLVESGGGLVQAGGSLRLSCAASGGTFIANAMGWYRPAPGKERELVAAITSRGGNTYYADSVKGRFTISRDNAKNTVYLQMNSLKPEDTSVYYCAARNDKRRQYYVGQSAFDFWGQGTQVTVSS	low polyreactivity
QVQLVESGGGLVQAGGSLRLSCAASGGTFKTNAMGWYRQAPGTERELVAAIRYSGGDTYYADSVKGRFTISRDNAKNTVYLLLKSLKPEDTAVYYCAADFTLLYDYWGQGTQVTVSS	low polyreactivity
QVQLVESGGGLVQAGGSLRLSCAASGGTFKYYDMGWYRQAPGKEREFVAAISKRVSSTYYADSVKGRFTISRDNAKNTVYLQMNSLKPEDTAVYYCAAYPVRYYNQYDYWGQGTQVTVSS	low polyreactivity
QVQLVESGGGLVQAGGSLRLSCAASGGTFLYYMGWYRQAPGKERELVAAITFSGGSTYYADSVKGRFTISRDNAKNTVYLQMNSLKPEDTAVYYCAAGWYDWPKYLLSVYTYYLYDSWGQGTQVTVSS	low polyreactivity
QVQLVESGGGLVQAGGSLRLSCAASGGTFMYYDMGWYRQAPGKERELVAAISSGSSTYYADSVKGRFTISRDNAKNTVYLQMNRLKQEDTAVYYCAKLHYAHYWGQGTQVTVSS	low polyreactivity
QVQLVESGGGLVQAGGSLRLSCAASGGTFNAYAMGWYRQAPGKERELVATISYSGGSTYYADSVKGRFTISRDNAKNTVYLQMNSLKPEDTAVYYCAKVRYYPYSPGGLDYWGQGTQVTVSS	low polyreactivity
QVQLVESGGGLVQAGGSLRLSCAASGGTFPFYAMGWYRQAPGKERELVAAITFTTSSTYYADSVKGRFTISRDNAKNTVYLQMNSLKPEDTAVYYCAVDYGWYSSYYREYDYWGQGTQVTVSS	low polyreactivity
